Experimental data taken from patent CN114106161A.

Molecular target: SARS-CoV-2 S1蛋白 (ACRO Biosystems) (SARS-CoV-2) (UniProt P0DTC2)
Assay: BLI, biotinylated SARS-CoV-2 S1 on SA sensor, 1:1 fit

With “针对SARS-CoV和SARS-CoV-2S1的人源抗体CR3022 (antibody)” the Kd was 0.0866 nM, the koff was 1.9e-05 s⁻¹ and the kon was 220000 M⁻¹ s⁻¹.
